We go through 19 molecules from patent US20200199241A1 (Chugai, published 2020).

Holding throughout (test): SPR (Biacore);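 also: antibody variants captured on sensor chip, Fcγ receptor flowed over at 25 °C, bound receptor normalized to amount of captured antibody, expressed relative to reference antibody set as 100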
The target in one test is T1, human FcγRIIb (human, UniProt P31994 43-217, limits assumed).
T1 construct: also called FcgRIIb
T1 sequence: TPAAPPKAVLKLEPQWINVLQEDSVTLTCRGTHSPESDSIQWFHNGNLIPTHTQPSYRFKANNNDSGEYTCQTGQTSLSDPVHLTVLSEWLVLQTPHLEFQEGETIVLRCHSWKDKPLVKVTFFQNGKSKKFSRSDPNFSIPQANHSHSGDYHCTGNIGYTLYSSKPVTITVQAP

The target in the next test is T2, human FcγRIa (human, UniProt P12314 16-292, limits assumed).
T2 construct: also called FcgRIa; FcγRI (CD64)
T2 sequence (P12314 16-292 limits assumed): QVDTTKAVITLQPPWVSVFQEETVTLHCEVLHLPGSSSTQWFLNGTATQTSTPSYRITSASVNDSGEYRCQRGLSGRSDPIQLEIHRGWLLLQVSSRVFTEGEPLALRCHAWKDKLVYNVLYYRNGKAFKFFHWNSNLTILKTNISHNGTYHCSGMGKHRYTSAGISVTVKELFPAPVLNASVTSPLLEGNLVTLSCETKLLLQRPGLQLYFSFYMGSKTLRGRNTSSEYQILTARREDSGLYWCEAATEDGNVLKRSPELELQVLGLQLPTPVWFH

A further test concerns the target T3, human FcγRIIIa(F) (human, UniProt P08637 17-208, limits assumed).
T3 construct: also called FcgRIIIaF; allotype F158

The next test deals with T4, human FcγRIIa(H) (human, UniProt P12318 36-217).
T4 construct: also called FcgRIIaH; FcγRIIa type H
T4 sequence: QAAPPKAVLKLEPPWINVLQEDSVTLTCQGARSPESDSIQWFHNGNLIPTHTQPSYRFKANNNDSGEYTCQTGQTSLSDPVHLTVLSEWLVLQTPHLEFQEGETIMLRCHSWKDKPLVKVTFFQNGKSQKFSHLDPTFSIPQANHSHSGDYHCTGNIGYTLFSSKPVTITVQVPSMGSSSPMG

The target of another test is T5, human FcγRIIa(R) (human, UniProt P12318 36-217).
T5 construct: also called FcgRIIaR; FcγRIIa type R
T5 chain: T4 sequence with H133R

Substitutions are numbered along the chain they refer to. Names and notes keep the numbering of the source.

T3 sequence (P08637 other isoform, or with tags, fused parts or gaps limits assumed): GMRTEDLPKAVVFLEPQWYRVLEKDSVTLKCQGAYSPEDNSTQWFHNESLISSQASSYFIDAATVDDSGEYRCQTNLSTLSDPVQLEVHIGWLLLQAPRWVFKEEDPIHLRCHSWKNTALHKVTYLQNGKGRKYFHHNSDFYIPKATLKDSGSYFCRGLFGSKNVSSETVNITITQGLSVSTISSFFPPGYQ

B1: GpH7-B3 variant E269F/GpL16-k0 (antibody, human IgG1)
heavy: not shown
light: DIVMTQSPLSLPVTPGEPASISCQASESLVHSNRNTYLHWYLQKPGQSPQLLIYKVSNRFSGVPDRFSGSGSGTDFTLKISRVEAEDVGVYYCSQNTHVPPTFGQGTKVEIE
notes: copies: 2 + 2
With B1, the relative binding activity with human FcγRIIb is 13 % of GpH7-B3/GpL16-k0; in the test with human FcγRIa it was 99 % of GpH7-B3/GpL16-k0; with human FcγRIIIa(F) it was 10 % of GpH7-B3/GpL16-k0; with human FcγRIIa(H) it was 41 % of GpH7-B3/GpL16-k0; in the test with human FcγRIIa(R), 19 % of GpH7-B3/GpL16-k0.

B2: GpH7-B3 variant E269Q/GpL16-k0 (antibody, human IgG1)
heavy: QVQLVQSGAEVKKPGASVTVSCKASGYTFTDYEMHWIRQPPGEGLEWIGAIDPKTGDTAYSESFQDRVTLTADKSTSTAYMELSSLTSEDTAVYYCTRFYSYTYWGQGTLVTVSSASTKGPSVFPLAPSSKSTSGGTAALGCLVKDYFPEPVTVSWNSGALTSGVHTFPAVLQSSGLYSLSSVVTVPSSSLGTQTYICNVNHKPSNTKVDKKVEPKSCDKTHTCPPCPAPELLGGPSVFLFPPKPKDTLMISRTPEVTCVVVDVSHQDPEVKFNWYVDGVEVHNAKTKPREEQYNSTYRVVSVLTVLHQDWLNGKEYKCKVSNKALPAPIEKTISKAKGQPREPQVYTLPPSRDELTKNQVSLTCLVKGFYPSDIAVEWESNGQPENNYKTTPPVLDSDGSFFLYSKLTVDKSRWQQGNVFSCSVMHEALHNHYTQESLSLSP
light: B1 light
notes: copies: 2 + 2
As for B2, the relative binding activity with human FcγRIIb was 13 % of GpH7-B3/GpL16-k0; with human FcγRIa, 96 % of GpH7-B3/GpL16-k0; with human FcγRIIIa(F), 38 % of GpH7-B3/GpL16-k0; with human FcγRIIa(H), 64 % of GpH7-B3/GpL16-k0; in the test with human FcγRIIa(R) it was 24 % of GpH7-B3/GpL16-k0.

B3: GpH7-B3 variant E269P/GpL16-k0 (antibody, human IgG1)
heavy: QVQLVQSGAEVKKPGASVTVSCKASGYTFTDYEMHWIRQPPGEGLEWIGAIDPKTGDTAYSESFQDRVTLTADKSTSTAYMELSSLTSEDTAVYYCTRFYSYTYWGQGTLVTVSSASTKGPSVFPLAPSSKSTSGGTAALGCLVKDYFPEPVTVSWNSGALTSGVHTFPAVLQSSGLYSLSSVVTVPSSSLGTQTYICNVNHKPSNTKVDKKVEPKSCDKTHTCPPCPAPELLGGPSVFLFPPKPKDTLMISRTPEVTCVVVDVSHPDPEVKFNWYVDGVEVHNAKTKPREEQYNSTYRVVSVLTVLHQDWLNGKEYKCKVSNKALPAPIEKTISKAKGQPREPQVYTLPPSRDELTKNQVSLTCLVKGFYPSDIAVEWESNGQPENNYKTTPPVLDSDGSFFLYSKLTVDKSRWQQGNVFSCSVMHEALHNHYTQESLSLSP
light: B1 light
notes: copies: 2 + 2
In the case of B3, the relative binding activity was 26 % of GpH7-B3/GpL16-k0 with human FcγRIIb; 93 % of GpH7-B3/GpL16-k0 with human FcγRIa; 14 % of GpH7-B3/GpL16-k0 with human FcγRIIIa(F); 33 % of GpH7-B3/GpL16-k0 with human FcγRIIa(H); 34 % of GpH7-B3/GpL16-k0 with human FcγRIIa(R).

B4: GpH7-B3 variant E269T/GpL16-k0 (antibody, human IgG1)
heavy: not shown
light: B1 light
notes: copies: 2 + 2
In the case of B4, the relative binding activity with human FcγRIIb is 19 % of GpH7-B3/GpL16-k0; with human FcγRIa it was 93 % of GpH7-B3/GpL16-k0; in the test with human FcγRIIIa(F), 26 % of GpH7-B3/GpL16-k0; with human FcγRIIa(H), 39 % of GpH7-B3/GpL16-k0; in the test with human FcγRIIa(R), 35 % of GpH7-B3/GpL16-k0.

B5: GpH7-B3 variant G236Q/GpL16-k0 (antibody, human IgG1)
heavy: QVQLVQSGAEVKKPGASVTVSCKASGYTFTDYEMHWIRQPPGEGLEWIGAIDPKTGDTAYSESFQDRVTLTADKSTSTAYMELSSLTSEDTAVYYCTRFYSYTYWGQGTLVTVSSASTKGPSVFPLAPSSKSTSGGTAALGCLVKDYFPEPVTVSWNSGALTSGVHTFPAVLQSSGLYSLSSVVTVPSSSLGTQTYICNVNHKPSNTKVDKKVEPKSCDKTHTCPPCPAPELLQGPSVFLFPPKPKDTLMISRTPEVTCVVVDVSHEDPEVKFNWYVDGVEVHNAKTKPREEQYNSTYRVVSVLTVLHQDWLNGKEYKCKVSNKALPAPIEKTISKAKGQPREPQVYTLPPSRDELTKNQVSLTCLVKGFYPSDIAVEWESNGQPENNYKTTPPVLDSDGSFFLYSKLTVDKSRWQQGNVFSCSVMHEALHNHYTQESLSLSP
light: B1 light
notes: copies: 2 + 2
As for B5, the relative binding activity with human FcγRIIb is 19 % of GpH7-B3/GpL16-k0; in the test with human FcγRIa, 45 % of GpH7-B3/GpL16-k0; with human FcγRIIIa(F) it was 8 % of GpH7-B3/GpL16-k0; with human FcγRIIa(H), 80 % of GpH7-B3/GpL16-k0; in the test with human FcγRIIa(R), 38 % of GpH7-B3/GpL16-k0.

B6: GpH7-B3 variant E269M/GpL16-k0 (antibody, human IgG1)
heavy: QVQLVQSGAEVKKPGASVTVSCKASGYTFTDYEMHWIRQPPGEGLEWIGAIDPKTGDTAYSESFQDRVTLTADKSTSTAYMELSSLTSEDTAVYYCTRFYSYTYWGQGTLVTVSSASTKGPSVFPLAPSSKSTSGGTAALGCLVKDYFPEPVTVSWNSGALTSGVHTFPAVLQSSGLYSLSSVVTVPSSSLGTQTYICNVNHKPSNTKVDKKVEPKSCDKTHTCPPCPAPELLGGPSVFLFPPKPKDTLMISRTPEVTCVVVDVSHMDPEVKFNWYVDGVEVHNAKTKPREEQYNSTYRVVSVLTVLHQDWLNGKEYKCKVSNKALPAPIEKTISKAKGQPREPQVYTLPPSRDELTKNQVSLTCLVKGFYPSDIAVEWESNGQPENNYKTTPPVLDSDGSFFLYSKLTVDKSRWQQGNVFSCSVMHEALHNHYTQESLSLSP
light: B1 light
notes: copies: 2 + 2
With B6, the relative binding activity is 15 % of GpH7-B3/GpL16-k0 with human FcγRIIb; 98 % of GpH7-B3/GpL16-k0 in the test with human FcγRIa; 20 % of GpH7-B3/GpL16-k0 in the test with human FcγRIIIa(F); 50 % of GpH7-B3/GpL16-k0 with human FcγRIIa(H); 23 % of GpH7-B3/GpL16-k0 in the test with human FcγRIIa(R).

B7: GpH7-B3 variant E269Y/GpL16-k0 (antibody, human IgG1)
heavy: not shown
light: B1 light
notes: copies: 2 + 2
B7: the relative binding activity in the test with human FcγRIIb was 13 % of GpH7-B3/GpL16-k0; in the test with human FcγRIa, 97 % of GpH7-B3/GpL16-k0; with human FcγRIIIa(F), 14 % of GpH7-B3/GpL16-k0; with human FcγRIIa(H), 43 % of GpH7-B3/GpL16-k0; in the test with human FcγRIIa(R) it was 21 % of GpH7-B3/GpL16-k0.

B8: GpH7-B3 variant G236H/GpL16-k0 (antibody, human IgG1)
heavy: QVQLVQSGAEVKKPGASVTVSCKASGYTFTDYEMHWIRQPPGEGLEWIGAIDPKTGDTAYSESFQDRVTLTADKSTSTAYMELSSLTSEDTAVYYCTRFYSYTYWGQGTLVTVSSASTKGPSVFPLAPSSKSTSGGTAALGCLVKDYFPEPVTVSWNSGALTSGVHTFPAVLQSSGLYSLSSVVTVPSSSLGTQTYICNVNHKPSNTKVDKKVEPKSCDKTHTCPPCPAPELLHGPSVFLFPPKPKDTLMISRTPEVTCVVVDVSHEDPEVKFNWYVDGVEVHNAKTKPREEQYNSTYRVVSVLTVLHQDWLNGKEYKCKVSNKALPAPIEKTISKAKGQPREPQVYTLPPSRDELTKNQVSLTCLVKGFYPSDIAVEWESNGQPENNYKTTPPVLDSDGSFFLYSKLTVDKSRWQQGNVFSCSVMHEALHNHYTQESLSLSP
light: B1 light
notes: copies: 2 + 2
B8: the relative binding activity in the test with human FcγRIIb is 6 % of GpH7-B3/GpL16-k0; with human FcγRIa it was 34 % of GpH7-B3/GpL16-k0; with human FcγRIIIa(F) it was 7 % of GpH7-B3/GpL16-k0; with human FcγRIIa(H), 91 % of GpH7-B3/GpL16-k0; with human FcγRIIa(R), 32 % of GpH7-B3/GpL16-k0.

B9: GpH7-B3 variant E269R/GpL16-k0 (antibody, human IgG1)
heavy: not shown
light: B1 light
notes: copies: 2 + 2
As for B9, the relative binding activity with human FcγRIIb was 0 % of GpH7-B3/GpL16-k0; in the test with human FcγRIa it was 72 % of GpH7-B3/GpL16-k0; with human FcγRIIIa(F), 7 % of GpH7-B3/GpL16-k0; with human FcγRIIa(H), 13 % of GpH7-B3/GpL16-k0; with human FcγRIIa(R) it was 2 % of GpH7-B3/GpL16-k0.

B10: GpH7-B3 variant G236M/GpL16-k0 (antibody, human IgG1)
heavy: not shown
light: B1 light
notes: copies: 2 + 2
Take B10: the relative binding activity with human FcγRIIb was 14 % of GpH7-B3/GpL16-k0; with human FcγRIa, 70 % of GpH7-B3/GpL16-k0; with human FcγRIIIa(F), 9 % of GpH7-B3/GpL16-k0; with human FcγRIIa(H), 42 % of GpH7-B3/GpL16-k0; with human FcγRIIa(R) it was 23 % of GpH7-B3/GpL16-k0.

B11: GpH7-B3 variant E269V/GpL16-k0 (antibody, human IgG1)
heavy: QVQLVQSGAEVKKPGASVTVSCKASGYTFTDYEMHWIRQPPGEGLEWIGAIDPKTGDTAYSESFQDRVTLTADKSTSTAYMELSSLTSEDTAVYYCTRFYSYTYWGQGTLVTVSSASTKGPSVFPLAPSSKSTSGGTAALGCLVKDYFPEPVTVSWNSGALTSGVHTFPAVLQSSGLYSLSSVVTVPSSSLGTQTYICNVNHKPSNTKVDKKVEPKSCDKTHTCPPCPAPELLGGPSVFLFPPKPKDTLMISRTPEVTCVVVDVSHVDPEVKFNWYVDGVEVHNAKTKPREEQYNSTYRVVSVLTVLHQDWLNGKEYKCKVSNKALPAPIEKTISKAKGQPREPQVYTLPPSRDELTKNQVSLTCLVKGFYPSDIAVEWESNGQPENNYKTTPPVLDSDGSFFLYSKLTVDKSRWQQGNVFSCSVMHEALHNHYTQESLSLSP
light: B1 light
notes: copies: 2 + 2
For B11, the relative binding activity with human FcγRIIb was 10 % of GpH7-B3/GpL16-k0; in the test with human FcγRIa, 92 % of GpH7-B3/GpL16-k0; with human FcγRIIIa(F), 12 % of GpH7-B3/GpL16-k0; with human FcγRIIa(H), 35 % of GpH7-B3/GpL16-k0; with human FcγRIIa(R) it was 16 % of GpH7-B3/GpL16-k0.

B12: GpH7-B3 variant G236F/GpL16-k0 (antibody, human IgG1)
heavy: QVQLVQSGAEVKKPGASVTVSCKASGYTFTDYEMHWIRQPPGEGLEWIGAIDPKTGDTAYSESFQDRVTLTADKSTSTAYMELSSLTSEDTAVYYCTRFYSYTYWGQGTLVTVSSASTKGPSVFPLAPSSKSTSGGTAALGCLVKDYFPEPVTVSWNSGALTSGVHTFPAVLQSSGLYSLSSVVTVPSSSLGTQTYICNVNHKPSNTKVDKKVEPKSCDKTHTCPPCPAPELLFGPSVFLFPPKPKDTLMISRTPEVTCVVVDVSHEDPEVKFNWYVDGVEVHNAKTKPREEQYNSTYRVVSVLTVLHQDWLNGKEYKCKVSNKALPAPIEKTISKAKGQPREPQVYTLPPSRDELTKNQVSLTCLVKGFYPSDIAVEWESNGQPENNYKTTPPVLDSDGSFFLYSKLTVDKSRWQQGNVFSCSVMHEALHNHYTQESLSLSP
light: B1 light
notes: copies: 2 + 2
For the molecule B12, the relative binding activity is 15 % of GpH7-B3/GpL16-k0 in the test with human FcγRIIb; 81 % of GpH7-B3/GpL16-k0 with human FcγRIa; 24 % of GpH7-B3/GpL16-k0 with human FcγRIIIa(F); 68 % of GpH7-B3/GpL16-k0 in the test with human FcγRIIa(H); 23 % of GpH7-B3/GpL16-k0 in the test with human FcγRIIa(R).

B13: GpH7-B3 variant E2698/GpL16-k0 (antibody, human IgG1)
heavy: not shown
light: B1 light
notes: read as E269S (misprint of S as 8); copies: 2 + 2
In the case of B13, the relative binding activity was 19 % of GpH7-B3/GpL16-k0 in the test with human FcγRIIb; 93 % of GpH7-B3/GpL16-k0 with human FcγRIa; 29 % of GpH7-B3/GpL16-k0 with human FcγRIIIa(F); 48 % of GpH7-B3/GpL16-k0 with human FcγRIIa(H); 33 % of GpH7-B3/GpL16-k0 in the test with human FcγRIIa(R).

B14: GpH7-B3 variant E269L/GpL16-k0 (antibody, human IgG1)
heavy: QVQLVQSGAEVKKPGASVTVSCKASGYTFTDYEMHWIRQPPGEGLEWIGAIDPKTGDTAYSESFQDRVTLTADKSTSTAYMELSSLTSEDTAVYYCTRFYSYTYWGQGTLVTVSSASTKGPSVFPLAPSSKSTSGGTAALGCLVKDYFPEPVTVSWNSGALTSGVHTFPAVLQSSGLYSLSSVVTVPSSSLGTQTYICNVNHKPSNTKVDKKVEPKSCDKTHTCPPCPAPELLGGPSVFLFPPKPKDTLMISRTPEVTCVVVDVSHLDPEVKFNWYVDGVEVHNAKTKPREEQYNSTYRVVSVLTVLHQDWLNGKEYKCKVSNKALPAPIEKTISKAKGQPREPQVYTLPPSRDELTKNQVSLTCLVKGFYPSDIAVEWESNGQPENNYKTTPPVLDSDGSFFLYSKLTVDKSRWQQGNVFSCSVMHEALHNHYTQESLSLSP
light: B1 light
notes: copies: 2 + 2
For B14, the relative binding activity is 12 % of GpH7-B3/GpL16-k0 with human FcγRIIb; 98 % of GpH7-B3/GpL16-k0 in the test with human FcγRIa; 10 % of GpH7-B3/GpL16-k0 in the test with human FcγRIIIa(F); 40 % of GpH7-B3/GpL16-k0 in the test with human FcγRIIa(H); 20 % of GpH7-B3/GpL16-k0 with human FcγRIIa(R).

B15: GpH7-B3 variant G236N/GpL16-k0 (antibody, human IgG1)
heavy: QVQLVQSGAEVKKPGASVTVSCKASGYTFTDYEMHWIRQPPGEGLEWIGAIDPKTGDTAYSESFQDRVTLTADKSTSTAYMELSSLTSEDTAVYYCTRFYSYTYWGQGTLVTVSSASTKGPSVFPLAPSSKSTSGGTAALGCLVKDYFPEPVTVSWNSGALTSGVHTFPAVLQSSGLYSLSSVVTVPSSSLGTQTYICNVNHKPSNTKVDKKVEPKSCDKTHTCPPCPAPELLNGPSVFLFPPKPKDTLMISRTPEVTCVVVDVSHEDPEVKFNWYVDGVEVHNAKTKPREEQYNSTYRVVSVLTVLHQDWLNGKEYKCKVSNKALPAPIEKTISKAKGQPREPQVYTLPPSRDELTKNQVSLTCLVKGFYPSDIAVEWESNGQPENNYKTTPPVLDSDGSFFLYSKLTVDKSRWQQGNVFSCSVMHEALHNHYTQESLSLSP
light: B1 light
notes: copies: 2 + 2
With B15, the relative binding activity with human FcγRIIb was 75 % of GpH7-B3/GpL16-k0; with human FcγRIa it was 42 % of GpH7-B3/GpL16-k0; with human FcγRIIIa(F) it was 8 % of GpH7-B3/GpL16-k0; with human FcγRIIa(H), 81 % of GpH7-B3/GpL16-k0; with human FcγRIIa(R), 54 % of GpH7-B3/GpL16-k0.

B16: GpH7-B3 variant G236L/GpL16-k0 (antibody, human IgG1)
heavy: not shown
light: B1 light
notes: copies: 2 + 2
Turning to B16, the relative binding activity in the test with human FcγRIIb was 4 % of GpH7-B3/GpL16-k0; with human FcγRIa, 18 % of GpH7-B3/GpL16-k0; with human FcγRIIIa(F), 1 % of GpH7-B3/GpL16-k0; with human FcγRIIa(H) it was 23 % of GpH7-B3/GpL16-k0; with human FcγRIIa(R) it was 20 % of GpH7-B3/GpL16-k0.

B17: GpH7-B3 variant E269G/GpL16-k0 (antibody, human IgG1)
heavy: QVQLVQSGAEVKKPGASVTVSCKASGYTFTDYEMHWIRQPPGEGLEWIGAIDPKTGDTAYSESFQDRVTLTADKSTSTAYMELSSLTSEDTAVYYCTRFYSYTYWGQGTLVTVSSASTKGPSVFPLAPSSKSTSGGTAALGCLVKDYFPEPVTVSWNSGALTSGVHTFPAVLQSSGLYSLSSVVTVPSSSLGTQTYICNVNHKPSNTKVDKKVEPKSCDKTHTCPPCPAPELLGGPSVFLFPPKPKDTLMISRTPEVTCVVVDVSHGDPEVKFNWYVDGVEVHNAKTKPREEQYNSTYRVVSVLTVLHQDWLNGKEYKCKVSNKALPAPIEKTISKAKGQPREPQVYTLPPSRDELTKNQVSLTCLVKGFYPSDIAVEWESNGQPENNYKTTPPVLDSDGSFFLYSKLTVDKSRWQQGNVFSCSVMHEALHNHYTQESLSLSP
light: B1 light
notes: copies: 2 + 2
As to B17, the relative binding activity in the test with human FcγRIIb is 25 % of GpH7-B3/GpL16-k0; with human FcγRIa, 94 % of GpH7-B3/GpL16-k0; with human FcγRIIIa(F) it was 27 % of GpH7-B3/GpL16-k0; with human FcγRIIa(H), 46 % of GpH7-B3/GpL16-k0; with human FcγRIIa(R) it was 38 % of GpH7-B3/GpL16-k0.

B18: GpH7-B3 variant G236P/GpL16-k0 (antibody, human IgG1)
heavy: not shown
light: B1 light
notes: copies: 2 + 2
As to B18, the relative binding activity in the test with human FcγRIIb is 1 % of GpH7-B3/GpL16-k0; in the test with human FcγRIa it was 2 % of GpH7-B3/GpL16-k0; with human FcγRIIIa(F), 1 % of GpH7-B3/GpL16-k0; with human FcγRIIa(H), 22 % of GpH7-B3/GpL16-k0; with human FcγRIIa(R), 12 % of GpH7-B3/GpL16-k0.

B19: GpH7-B3 variant E269N/GpL16-k0 (antibody, human IgG1)
heavy: not shown
light: B1 light
notes: copies: 2 + 2
Take B19: the relative binding activity with human FcγRIIb was 15 % of GpH7-B3/GpL16-k0; with human FcγRIa, 90 % of GpH7-B3/GpL16-k0; with human FcγRIIIa(F), 21 % of GpH7-B3/GpL16-k0; with human FcγRIIa(H), 31 % of GpH7-B3/GpL16-k0; with human FcγRIIa(R), 24 % of GpH7-B3/GpL16-k0.
